Here are results for two molecules from PMC4505066 (2015).

The labels stand for the following.
B2: HDAC4 catalytic domain, wild type (domain or fragment)
chain: TKPRFTTGLVYDTLMLKHQCTCGSSSSHPEHAGRIQSIWSRLQETGLRGKCECIRGRKATLEELQTVHSEAHTLLYGTNPLNRQKLDSKKLLGSLASVFVRLPCGGVGVDSDTIWNEVHSAGAARLAVGCVVELVFKVATGELKNGFAVVRPPGHHAEESTPMGFCYFNSVAVAAKLLQQRLSVSKILIVDWDVHHGNGTQQAFYSDPSVLYMSLHRYDDGNFFPGSGAPDEVGTGPGVGFNVNMAFTGGLDPPMGDAEYLAAFRTVVMPIASEFAPDVVLVSSGFDAVEGHPTPLGGYNLSARCFGYLTKQLMGLAGGRIVLALEGGHDLTAICDASEACVSALLGNELDPLPEKVLQQRPNANAVRSMEKVMEIHSKYWRCLQRTTSTAGRSLIEAQTCENEEAETVT

“And” between values parts separate entries of the source, which are not always exact repeats. Equal values may be shown once. Read-outs that look alike come from different tables or passages of the source. No end group written: not given here. Bounds are passed on as bounds.

The target in experiment [1] is T1, HDAC5 catalytic domain.
T1 chain: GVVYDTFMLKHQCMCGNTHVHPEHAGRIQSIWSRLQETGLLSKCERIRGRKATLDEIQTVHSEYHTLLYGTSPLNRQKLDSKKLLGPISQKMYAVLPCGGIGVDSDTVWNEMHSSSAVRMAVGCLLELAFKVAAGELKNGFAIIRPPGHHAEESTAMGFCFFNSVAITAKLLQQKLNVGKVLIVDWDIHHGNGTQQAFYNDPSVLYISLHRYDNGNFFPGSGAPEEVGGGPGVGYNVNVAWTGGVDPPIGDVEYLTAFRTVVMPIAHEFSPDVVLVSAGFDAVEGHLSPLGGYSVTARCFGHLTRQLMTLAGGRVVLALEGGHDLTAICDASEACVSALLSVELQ
Kind of experiment: FP.

The target of experiment [2] is B2. Kind of experiment: FP.
Experiment [3] addresses T2, HDAC9 catalytic domain.
T2 chain: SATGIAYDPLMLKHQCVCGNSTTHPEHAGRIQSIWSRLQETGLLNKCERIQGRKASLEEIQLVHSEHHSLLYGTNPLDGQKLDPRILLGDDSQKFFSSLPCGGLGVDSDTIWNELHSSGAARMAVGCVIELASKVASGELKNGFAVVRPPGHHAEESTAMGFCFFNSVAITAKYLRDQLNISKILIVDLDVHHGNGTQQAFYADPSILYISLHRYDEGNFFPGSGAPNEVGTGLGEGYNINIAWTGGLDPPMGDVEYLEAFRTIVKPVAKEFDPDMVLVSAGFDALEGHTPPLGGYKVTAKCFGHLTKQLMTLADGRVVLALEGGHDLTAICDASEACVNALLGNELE
Nature of the experiment: FP.

The target in experiment [4] is T3, HDAC7 catalytic domain.
T3 chain: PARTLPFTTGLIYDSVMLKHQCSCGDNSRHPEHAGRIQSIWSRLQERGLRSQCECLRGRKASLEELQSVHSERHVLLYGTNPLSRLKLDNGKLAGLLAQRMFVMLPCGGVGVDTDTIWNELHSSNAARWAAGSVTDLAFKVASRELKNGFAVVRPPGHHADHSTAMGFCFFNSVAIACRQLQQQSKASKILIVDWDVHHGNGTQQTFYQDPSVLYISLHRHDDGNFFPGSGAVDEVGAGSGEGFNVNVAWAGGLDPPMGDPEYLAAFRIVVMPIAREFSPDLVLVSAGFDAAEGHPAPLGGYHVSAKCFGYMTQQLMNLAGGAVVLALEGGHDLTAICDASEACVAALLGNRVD
Nature of the experiment: FP.

For experiment [5], the target named is T4, full-length HDAC8 (UniProt Q9BY41 1-377).
T4 chain: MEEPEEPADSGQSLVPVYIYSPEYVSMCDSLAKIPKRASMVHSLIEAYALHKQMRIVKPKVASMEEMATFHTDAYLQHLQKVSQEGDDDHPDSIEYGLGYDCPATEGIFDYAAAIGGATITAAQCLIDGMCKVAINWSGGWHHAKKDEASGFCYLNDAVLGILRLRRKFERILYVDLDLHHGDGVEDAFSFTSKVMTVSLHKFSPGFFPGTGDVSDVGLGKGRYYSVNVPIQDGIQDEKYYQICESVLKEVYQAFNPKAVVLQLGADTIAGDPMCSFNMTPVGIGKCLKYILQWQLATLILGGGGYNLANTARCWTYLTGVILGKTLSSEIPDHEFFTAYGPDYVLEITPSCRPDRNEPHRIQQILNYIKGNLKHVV
Kind of experiment: FP.

For experiment [6], the target named is B2. Kind of experiment: FP.
Experiment [7] deals with T5, HDAC4 catalytic domain H675A.
T5 chain: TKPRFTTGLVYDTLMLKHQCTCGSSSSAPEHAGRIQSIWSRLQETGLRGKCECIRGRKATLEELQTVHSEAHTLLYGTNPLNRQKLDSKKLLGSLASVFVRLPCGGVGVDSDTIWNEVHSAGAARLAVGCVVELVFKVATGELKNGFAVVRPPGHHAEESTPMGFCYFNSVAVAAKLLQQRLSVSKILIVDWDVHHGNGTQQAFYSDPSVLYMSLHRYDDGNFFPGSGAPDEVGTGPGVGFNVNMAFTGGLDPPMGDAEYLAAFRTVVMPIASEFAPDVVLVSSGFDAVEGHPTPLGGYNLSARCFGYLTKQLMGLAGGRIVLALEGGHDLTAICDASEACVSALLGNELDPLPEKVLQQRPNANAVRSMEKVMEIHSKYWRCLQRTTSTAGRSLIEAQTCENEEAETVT
Kind of experiment: FP.

Experiment [8] addresses HDAC4 catalytic domain L728A (UniProt P56524 648-1033, L728A). Kind of experiment: FP.
Experiment [9] concerns the target T6, HDAC4 catalytic domain C751A.
T6 chain: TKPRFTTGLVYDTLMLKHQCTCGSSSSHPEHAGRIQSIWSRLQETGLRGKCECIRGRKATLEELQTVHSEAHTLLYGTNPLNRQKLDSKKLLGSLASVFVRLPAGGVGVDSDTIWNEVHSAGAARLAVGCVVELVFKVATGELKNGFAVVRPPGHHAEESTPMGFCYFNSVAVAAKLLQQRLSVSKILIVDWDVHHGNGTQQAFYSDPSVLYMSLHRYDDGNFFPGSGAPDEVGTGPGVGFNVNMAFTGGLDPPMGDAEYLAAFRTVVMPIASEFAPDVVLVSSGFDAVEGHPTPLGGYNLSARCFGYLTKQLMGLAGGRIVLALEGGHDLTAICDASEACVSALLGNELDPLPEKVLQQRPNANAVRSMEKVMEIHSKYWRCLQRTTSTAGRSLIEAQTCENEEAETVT
Kind of experiment: FP.

The target in experiment [10] is T7, HDAC4 catalytic domain C667A.
T7 chain: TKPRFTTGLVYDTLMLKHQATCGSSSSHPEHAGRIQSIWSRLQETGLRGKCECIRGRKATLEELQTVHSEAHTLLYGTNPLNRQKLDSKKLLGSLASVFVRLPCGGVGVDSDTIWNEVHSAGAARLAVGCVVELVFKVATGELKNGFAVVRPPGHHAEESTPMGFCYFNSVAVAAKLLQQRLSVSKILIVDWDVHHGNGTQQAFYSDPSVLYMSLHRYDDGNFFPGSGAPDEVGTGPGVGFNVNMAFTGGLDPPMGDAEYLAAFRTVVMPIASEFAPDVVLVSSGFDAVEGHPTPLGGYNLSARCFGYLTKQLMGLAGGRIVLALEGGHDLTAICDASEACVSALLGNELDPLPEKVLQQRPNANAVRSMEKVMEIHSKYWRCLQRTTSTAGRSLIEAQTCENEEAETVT
Kind of experiment: FP.

For experiment [11], the target named is T8, GSI motif peptide with a mutation to Thr-4 of the motif (UniProt Q9Y618, BODIPY-TMR coupled to the N-terminal cysteine). Nature of the experiment: FP; T4V peptide.
Experiment [12] addresses T9, GSI motif peptide with a mutation to Gln-5 of the motif (UniProt Q9Y618, BODIPY-TMR coupled to the N-terminal cysteine). Nature of the experiment: FP; Q5E peptide.
Experiment [13] addresses T8, GSI motif peptide with a mutation to …. Nature of the experiment: FP; T4A peptide.
Experiment [14] deals with T9, GSI motif peptide with a mutation to …. Kind of experiment: FP; Q5A peptide.
The target in experiment [15] is GSI motif peptide with a mutation to Pro-8 of the motif (UniProt Q9Y618, BODIPY-TMR coupled to the N-terminal cysteine). Nature of the experiment: FP; P8A peptide.

Sequence of HDAC4 catalytic domain L728A (P56524 648-1033 L728A): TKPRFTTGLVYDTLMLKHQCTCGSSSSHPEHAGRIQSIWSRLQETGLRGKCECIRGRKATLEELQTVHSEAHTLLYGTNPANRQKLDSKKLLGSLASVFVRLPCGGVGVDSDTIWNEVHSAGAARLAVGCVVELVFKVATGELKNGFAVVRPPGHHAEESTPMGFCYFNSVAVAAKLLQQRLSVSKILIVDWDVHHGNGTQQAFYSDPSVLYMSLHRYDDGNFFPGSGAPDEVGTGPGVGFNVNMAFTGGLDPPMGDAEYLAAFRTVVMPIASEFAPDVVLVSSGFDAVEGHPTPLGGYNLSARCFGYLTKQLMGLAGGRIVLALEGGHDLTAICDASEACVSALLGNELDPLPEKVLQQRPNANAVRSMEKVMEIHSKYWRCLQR

B1: wild type GSI motif peptide (CPRPLKEGSITQGTPLKYDTG), SMRT amino acids 1450-1469 with an amino-terminal cysteine (peptide)
peptide: C(BODIPY‑TMR)PRPLKEGSITQGTPLKYDTG
Broadly, the Kd is the equilibrium constant for the complex coming apart. Lower therefore signals higher affinity. Regarding B1, the Kd was 4.24 µM in experiment [1]; 5.74 µM and 6.5 µM in experiment [2]; 8.34 µM in [3]; 4.44 µM in experiment [4]; more than 1000 µM in [5]; 5.6 µM in experiment [6]. In addition, the Kd in [7] was more than 1000 µM; in experiment [8], 4.59 µM; in experiment [9], more than 1000 µM; in experiment [10] it was more than 1000 µM.
In the case of B2, the Kd is 16.9 µM in experiment [11]; 17.7 µM in [12]; 14.4 µM in experiment [13]; 5.47 µM in [14]; 47 µM in [15].
